From US20150111251A1 (AbbVie / Abbott, published 2015)

Assays:
[1] = target: T1, Recombinant Human TNF-α/TNFSF1A (human, UniProt P01375 77-233); assay: cell-based or functional assay
[2] = target: T1, Recombinant Human TNF-α/TNFSF1A; assay: SPR (BIACORE), antibody captured, TNFα in solution
Description: The BIACORE assay (Biacore, Inc, Piscataway, N.J.) determines the affinity of antibodies with kinetic measurements of on-rate and off-rate constants. Binding of antibodies to a target antigen (for example, a purified recombinant target antigen) is determined by surface plasmon resonance-based measurements with a Biacore® 1000 or 3000 instrument (Biacore® AB, Uppsala, Sweden) using running HBS-EP (10 mM HEPES [pH 7.4], 150 mM NaCl, 3 mM EDTA, and 0.005% surfactant P20) at 25° C. All chemicals are obtained from Biacore® AB (Uppsala, Sweden) or otherwise from a different source as described. For example, approximately 5000 RU of goat anti-mouse IgG, (Fcγ), fragment specific polyclonal antibody (Pierce Biotechnology Inc, Rockford, Ill.) diluted in 10 mM sodium acetate (pH 4.5) is directly immobilized across a CM5 research grade biosensor chip using a standard amine coupling kit according to manufacturer's instructions and procedures at 25 μg/ml. Unreacted moieties on the biosensor surface are blocked with ethanolamine. Modified carboxymethyl dextran surface in flowcell 2 and 4 is used as a reaction surface. Unmodified carboxymethyl dextran without goat anti-mouse IgG in flow cell 1 and 3 is used as the reference surface. For kinetic analysis, rate equations derived from the 1:1 Langmuir binding model are fitted simultaneously to association and dissociation phases of all eight injections (using global fit analysis) with the use of Biaevaluation 4.0.1 software. Purified antibodies are diluted in HEPES-buffered saline for capture across goat anti-mouse IgG specific reaction surfaces. Antibodies to be captured as a ligand (25 μg/ml) are injected over reaction matrices at a flow rate of 5 μl/minute. The association and dissociation rate constants, kₒₙ (M⁻¹ s⁻¹) and koff (s⁻¹), are determined under a continuous flow rate of 25 μl/minute. Rate constants are derived by making kinetic binding measurements at different antigen concentrations ranging from 10-200 nM. The equilibrium dissociation constant (M) of the reaction between antibodies and the target antigen is then calculated from the kinetic rate constants by the following formula: KD=koff/kₒₙ. Binding is recorded as a function of time and kinetic rate constants are calculated. In this assay, on-rates as fast as 10⁶ M⁻¹ s⁻¹ and off-rates as slow as 10⁻⁶ s⁻¹ can be measured.

T1 sequence (P01375 77-233 limits assumed): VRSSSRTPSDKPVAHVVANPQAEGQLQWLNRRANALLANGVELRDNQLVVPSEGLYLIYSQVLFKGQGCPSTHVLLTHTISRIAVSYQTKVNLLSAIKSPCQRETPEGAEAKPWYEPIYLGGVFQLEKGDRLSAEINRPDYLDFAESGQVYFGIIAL

| Binder | TNFα Neutralization Assay IC50 nM (L929 cells) [1] [nM] | Kd [2] [nM] | koff [2] [s⁻¹] | kon [2] [M⁻¹ s⁻¹] |
| --- | --- | --- | --- | --- |
| AB353 (antibody, V domains shown, Full-length humanized antibody made in HEK 293-6E; also called hMAK199VH.1/hMAK199VL.1b) VH: EVQLVQSGSELKKPGASVKVSCKASGYTFTNYGMNWVRQAPGQGLEWMGWINTYTGEPTYADDFKGRFVFSLDTSVSTAYLQISSLKAEDTAVYYCARKFLTTVVVTDYAMDYWGQGTTVTVSS VL: DIQMTQSPSSLSASVGDRVTITCRASQDISNYLNWYQQKPGKAPKLLIYYTSRLQSGVPSRFSGSGSGTDYTLTISSLQPEDFATYYCQQGNTLPPTFGQGTKLEIK | 0.66 | 0.46 | 0.00092 | 2e+06 |
| AB351 (antibody, V domains shown, Full-length humanized antibody made in HEK 293-6E; also called hMAK199VH.1/hMAK199VL.1) VH: EVQLVQSGSELKKPGASVKVSCKASGYTFTNYGMNWVRQAPGQGLEWMGWINTYTGEPTYADDFKGRFVFSLDTSVSTAYLQISSLKAEDTAVYYCARKFLTTVVVTDYAMDYWGQGTTVTVSS VL: DIQMTQSPSSLSASVGDRVTITCRASQDISNYLNWYQQKPGKAPKLLIYYTSRLQSGVPSRFSGSGSGTDFTLTISSLQPEDFATYYCQQGNTLPPTFGQGTKLEIK | 1.06 | – | 0.00068 | 2e+06 |
| AB352 (antibody, V domains shown, Full-length humanized antibody made in HEK 293-6E; also called hMAK199VH.1/hMAK199VL.1a) VH: EVQLVQSGSELKKPGASVKVSCKASGYTFTNYGMNWVRQAPGQGLEWMGWINTYTGEPTYADDFKGRFVFSLDTSVSTAYLQISSLKAEDTAVYYCARKFLTTVVVTDYAMDYWGQGTTVTVSS VL: DIQMTQSPSSLSASVGDRVTITCRASQDISNYLNWYQQKPGKTVKLLIYYTSRLQSGVPSRFSGSGSGTDYTLTISSLQPEDFATYFCQQGNTLPPTFGQGTKLEIK | 0.35 | 0.45 | 0.00094 | 2.1e+06 |
| AB357 (antibody, V domains shown, Full-length humanized antibody made in HEK 293-6E; also called hMAK199VH.1a/hMAK199VL.1) VH: EIQLVQSGSELKKPGASVKVSCKASGYTFTNYGMNWVRQAPGQGLEWMGWINTYTGEPTYADDFKGRFVFSLDTSVSTAYLQISSLKAEDTAVYFCARKFLTTVVVTDYAMDYWGQGTTVTVSS VL: DIQMTQSPSSLSASVGDRVTITCRASQDISNYLNWYQQKPGKAPKLLIYYTSRLQSGVPSRFSGSGSGTDFTLTISSLQPEDFATYYCQQGNTLPPTFGQGTKLEIK | 1.94 | 0.67 | 0.0013 | 1.9e+06 |
| AB358 (antibody, V domains shown, Full-length humanized antibody made in HEK 293-6E; also called hMAK199VH.1a/hMAK199VL.1a) VH: EIQLVQSGSELKKPGASVKVSCKASGYTFTNYGMNWVRQAPGQGLEWMGWINTYTGEPTYADDFKGRFVFSLDTSVSTAYLQISSLKAEDTAVYFCARKFLTTVVVTDYAMDYWGQGTTVTVSS VL: DIQMTQSPSSLSASVGDRVTITCRASQDISNYLNWYQQKPGKTVKLLIYYTSRLQSGVPSRFSGSGSGTDYTLTISSLQPEDFATYFCQQGNTLPPTFGQGTKLEIK | 0.21 | 0.7 | 0.00097 | 1.4e+06 |
| AB359 (antibody, V domains shown, Full-length humanized antibody made in HEK 293-6E; also called hMAK199VH.1a/hMAK199VL.1b) VH: EIQLVQSGSELKKPGASVKVSCKASGYTFTNYGMNWVRQAPGQGLEWMGWINTYTGEPTYADDFKGRFVFSLDTSVSTAYLQISSLKAEDTAVYFCARKFLTTVVVTDYAMDYWGQGTTVTVSS VL: DIQMTQSPSSLSASVGDRVTITCRASQDISNYLNWYQQKPGKAPKLLIYYTSRLQSGVPSRFSGSGSGTDYTLTISSLQPEDFATYYCQQGNTLPPTFGQGTKLEIK | 3.78 | 0.73 | 0.00093 | 1.3e+06 |
| AB363 (antibody, V domains shown, Full-length humanized antibody made in HEK 293-6E; also called hMAK199VH.1b/hMAK199VL.1) VH: EVQLVQSGSELKKPGASVKVSCKASGYTFTNYGMNWVRQAPGQGLEWMGWINTYTGEPTYADDFKGRFVFSLDTSVSTAYLQISSLKAEDTAVYFCARKFLTTVVVTDYAMDYWGQGTTVTVSS VL: DIQMTQSPSSLSASVGDRVTITCRASQDISNYLNWYQQKPGKAPKLLIYYTSRLQSGVPSRFSGSGSGTDFTLTISSLQPEDFATYYCQQGNTLPPTFGQGTKLEIK | 0.32 | 0.86 | 0.0012 | 1.4e+06 |
| AB354 (antibody, V domains shown, Full-length humanized antibody made in HEK 293-6E; also called hMAK199VH.1/hMAK199VL.2) VH: EVQLVQSGSELKKPGASVKVSCKASGYTFTNYGMNWVRQAPGQGLEWMGWINTYTGEPTYADDFKGRFVFSLDTSVSTAYLQISSLKAEDTAVYYCARKFLTTVVVTDYAMDYWGQGTTVTVSS VL: DVVMTQSPAFLSVTPGEKVTITCRASQDISNYLNWYQQKPDQAPKLLIKYTSRLQSGVPSRFSGSGSGTDFTFTISSLEAEDAATYYCQQGNTLPPTFGQGTKLEIK | – | 0.52 | 0.001 | 2e+06 |
| AB360 (antibody, V domains shown, Full-length humanized antibody made in HEK 293-6E; also called hMAK199VH.1a/hMAK199VL.2) VH: EIQLVQSGSELKKPGASVKVSCKASGYTFTNYGMNWVRQAPGQGLEWMGWINTYTGEPTYADDFKGRFVFSLDTSVSTAYLQISSLKAEDTAVYFCARKFLTTVVVTDYAMDYWGQGTTVTVSS VL: DVVMTQSPAFLSVTPGEKVTITCRASQDISNYLNWYQQKPDQAPKLLIKYTSRLQSGVPSRFSGSGSGTDFTFTISSLEAEDAATYYCQQGNTLPPTFGQGTKLEIK | – | 0.78 | 0.00097 | 1.2e+06 |
| AB366 (antibody, V domains shown, Full-length humanized antibody made in HEK 293-6E; also called hMAK199VH.1b/hMAK199VL.2) VH: EVQLVQSGSELKKPGASVKVSCKASGYTFTNYGMNWVRQAPGQGLEWMGWINTYTGEPTYADDFKGRFVFSLDTSVSTAYLQISSLKAEDTAVYFCARKFLTTVVVTDYAMDYWGQGTTVTVSS VL: DVVMTQSPAFLSVTPGEKVTITCRASQDISNYLNWYQQKPDQAPKLLIKYTSRLQSGVPSRFSGSGSGTDFTFTISSLEAEDAATYYCQQGNTLPPTFGQGTKLEIK | – | 0.93 | 0.0015 | 1.6e+06 |
| AB384 (antibody, V domains shown, Full-length humanized antibody made in HEK 293-6E; also called hMAK199VH.2b/hMAK199VL.2) VH: EIQLVQSGAEVKKPGASVKVSCKASGYTFTNYGMNWVRQAPGQGLEWMGWINTYTGEPTYADDFKGRVTFTTDTSTSTAYMELSSLRSEDTAVYYCARKFLTTVVVTDYAMDYWGQGTTVTVSS VL: DVVMTQSPAFLSVTPGEKVTITCRASQDISNYLNWYQQKPDQAPKLLIKYTSRLQSGVPSRFSGSGSGTDFTFTISSLEAEDAATYYCQQGNTLPPTFGQGTKLEIK | – | 2.1 | 0.0014 | 660000 |
| AB372 (antibody, V domains shown, Full-length humanized antibody made in HEK 293-6E; also called hMAK199VH.2/hMAK199VL.2) VH: EVQLVQSGAEVKKPGASVKVSCKASGYTFTNYGMNWVRQAPGQGLEWMGWINTYTGEPTYADDFKGRVTMTTDTSTSTAYMELSSLRSEDTAVYYCARKFLTTVVVTDYAMDYWGQGTTVTVSS VL: DVVMTQSPAFLSVTPGEKVTITCRASQDISNYLNWYQQKPDQAPKLLIKYTSRLQSGVPSRFSGSGSGTDFTFTISSLEAEDAATYYCQQGNTLPPTFGQGTKLEIK | – | 1.2 | 0.0011 | 950000 |
| AB378 (antibody, V domains shown, Full-length humanized antibody made in HEK 293-6E; also called hMAK199VH.2a/hMAK199VL.2) VH: EIQLVQSGAEVKKPGASVKVSCKASGYTFTNYGMNWVRQAPGQGLEWMGWINTYTGEPTYADDFKGRFTFTLDTSTSTAYMELSSLRSEDTAVYFCARKFLTTVVVTDYAMDYWGQGTTVTVSS VL: DVVMTQSPAFLSVTPGEKVTITCRASQDISNYLNWYQQKPDQAPKLLIKYTSRLQSGVPSRFSGSGSGTDFTFTISSLEAEDAATYYCQQGNTLPPTFGQGTKLEIK | – | 1.4 | 0.0013 | 880000 |
